Residue numbers refer to the chain shown, from its start. Names may count otherwise.
B1: CtCE2 (Acetivibrio thermocellus ATCC 27405; D789A) (protein)
chain: SQTPDEDNPGILYNGRFDFSDPNGPKCAWSGSNVELNFYGTEASVTIKSGGENWFQAIVDGNPLPPFSVNATTSTVKLVSGLAEGAHHLVLWKRTEASLGEVQFLGFDFGSGKLLAAPKPLERKIEFIGDSITCAYGNEGTSKEQSFTPKNENSYMSYAAITARNLNASANMIAWSGIGLTMNYGGAPGPLIMDRYPYTLPYSGVRWDFSKYVPQVVVINLGTNDFSTSFADKTKFVTAYKNLISEVRRNYPDAHIFCCVGPMLWGTGLDLCRSYVTEVVNDCNRSGDLKVYFVEFPQQDGSTGYGEAWHPSIATHQLMAERLTAEIKNKLGW
notes: C-terminal CE2 esterase module only, residues 482-814 of the full-length enzyme, C-terminal His6 tag, pET22b, E. coli BL21
B2: CtCE2 (Acetivibrio thermocellus ATCC 27405; D789N) (protein)
chain: B1 chain with A308N
notes: as for B1
B3: CjCE2A (Cellvibrio japonicus Ueda107) (protein)
chain: NTQSLMSSTHTIAASDPHIQVMGRTHINDDASLTFGYPGVSLSTIVAGSRLTAEMQSSNGNSWIDVIIDNHPPTSIKLDAQQQTVELFHFPNSGEHRVEIIHRSENWHGQVTLKQLTLTGTQFLPAPVLPQRKILVLGDSVTCGEAIDRVAGEDKNTRWWNARESYGMLTAKALDAQVQLVCWGGRGLIRSWNGKTDDANLPDFYQFTLGDTGQAPQWDHHRYQPDLIISAIGTNDFSPGIPDRATYINTYTRFVRTLLDNHPQATIVLTEGAILNGDKKAALVSYIGETRQQLHSNRVFYASSSHHPGDNSDAHPTKDQHAAMARELTPQLRQIMDW
notes: mature form (signal peptide removed), C-terminal His6 tag, pET22b, E. coli BL21; catalytic triad Ser-160, His-335, Asp-333; Trp-127, Trp-212
B4: CjCE2B (Cellvibrio japonicus Ueda107) (protein)
chain: ADSTKPLPLHIGGRVLVESPANQPVSYTYSWPAVYFETAFKGQSLTLKFDDDQNIFRLIVDDKAPVVINKPGKVDYPVESLAPGKHRVRLEKLTETQSTSGRFLGFYTDPSAKPLALPKRKRQIEFIGDSFTVGYGNTSPSRECTDEELFKTTNSQMAFGPLTAKAFDADYQINASSGFGIVRNYNGTSPDKSLLSLYPYTLNNPDQLYHNKHWKPQVIVIGLGTNDFSTALNDNERWKTREALHADYVANYVKFVKQLHSNNARAQFILMNSDQSNGEIAEQVGKVVAQLKGGGLHQVEQIVFKGLDYSGCHWHPSANDDQLLANLLITHLQQKKGIW
notes: mature form (signal peptide removed), C-terminal His6 tag, pET22b, E. coli BL21; model ordered 26-361; Cys-333, Trp-335, Tyr-206
B5: CtCE2 (Acetivibrio thermocellus ATCC 27405) (protein)
chain: B1 chain with A308D
notes: as for B1

Columns and labels:
CtCE2 [1] = target: T1, CtCE2 (Acetivibrio thermocellus, UniProt P10477); assay: inhibition of 4-nitrophenyl acetate hydrolysis; type: biochemical; details: substrate 4-nitrophenyl acetate; noncompetitive; 37 °C
T1 construct: gene celE; C-terminal CE2 esterase module only, residues 482-814 of the full-length enzyme, C-terminal His6 tag, pET22b, E. coli BL21
Description: inhibition of 4-nitrophenyl acetate hydrolysis on CtCE2

CtCE2 [2] = target: T2, CtCE2 (Acetivibrio thermocellus, UniProt P10477, H791A); assay: isothermal titration calorimetry; type: binding; details: 50 mM HEPES-Na, 25 °C; pH 8.0 with 300 mM NaCl (Methods; Figure 5 legend says pH 7.0); binds across esterase active site
T2 construct: gene celE; C-terminal CE2 esterase module only, residues 482-814 of the full-length enzyme, C-terminal His6 tag, pET22b, E. coli BL21
Description: (§1) isothermal titration calorimetry on CtCE2

CtCE2 [3] = target: T3, CtCE2 (Acetivibrio thermocellus, UniProt P10477, Y683A); assay: isothermal titration calorimetry; type: binding; details: 50 mM HEPES-Na, 25 °C; pH 8.0 with 300 mM NaCl (Methods; Figure 5 legend says pH 7.0); binds across esterase active site
T3 construct: gene celE; C-terminal CE2 esterase module only, residues 482-814 of the full-length enzyme, C-terminal His6 tag, pET22b, E. coli BL21
Description: as §1

CtCE2 [4] = target: T4, CtCE2 (Acetivibrio thermocellus, UniProt P10477, S612A); assay: isothermal titration calorimetry; type: binding; details: 50 mM HEPES-Na, 25 °C; pH 8.0 with 300 mM NaCl (Methods; Figure 5 legend says pH 7.0); binds across esterase active site
T4 construct: gene celE; C-terminal CE2 esterase module only, residues 482-814 of the full-length enzyme, C-terminal His6 tag, pET22b, E. coli BL21
Description: as §1

CtCE2 [5] = target: T5, CtCE2 (Acetivibrio thermocellus, UniProt P10477, W746A); assay: isothermal titration calorimetry; type: binding; details: 50 mM HEPES-Na, 25 °C; pH 8.0 with 300 mM NaCl (Methods; Figure 5 legend says pH 7.0); binds across esterase active site
T5 construct: gene celE; C-terminal CE2 esterase module only, residues 482-814 of the full-length enzyme, C-terminal His6 tag, pET22b, E. coli BL21
Description: as §1

CtCE2 [6] = target: T1, CtCE2; assay: isothermal titration calorimetry; type: binding; details: 50 mM HEPES-Na, 25 °C; pH 8.0 with 300 mM NaCl (Methods; Figure 5 legend says pH 7.0); binds across esterase active site
Description: as §1

purified protein [7] = substrate: CC(=O)Oc1ccc([N+](=O)[O-])cc1; assay: purified protein; type: biochemical, Acetivibrio thermocellus; details: 50 mM sodium phosphate pH 7.0, 1 mg/ml BSA
purified protein [8] = substrate: CC(=O)Oc1ccc([N+](=O)[O-])cc1; assay: purified protein; type: biochemical, Cellvibrio japonicus; details: 50 mM sodium phosphate pH 7.0, 1 mg/ml BSA

T1 sequence (P10477 482-814): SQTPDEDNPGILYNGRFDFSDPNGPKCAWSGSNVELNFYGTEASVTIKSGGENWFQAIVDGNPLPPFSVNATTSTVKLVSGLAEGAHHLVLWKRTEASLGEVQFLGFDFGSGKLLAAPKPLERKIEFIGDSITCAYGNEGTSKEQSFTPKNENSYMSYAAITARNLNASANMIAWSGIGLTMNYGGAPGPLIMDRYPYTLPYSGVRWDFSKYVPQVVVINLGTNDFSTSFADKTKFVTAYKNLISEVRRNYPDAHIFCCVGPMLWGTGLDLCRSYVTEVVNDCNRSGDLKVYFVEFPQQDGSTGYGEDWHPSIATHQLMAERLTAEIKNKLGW
T5 sequence (P10477 482-814 W746A): as the sequence (P10477 482-814) above, with W265A counted along it
T2 sequence (P10477 482-814 H791A): as the sequence (P10477 482-814) above, with H310A counted along it
T4 sequence (P10477 482-814 S612A): as the sequence (P10477 482-814) above, with S131A counted along it
T3 sequence (P10477 482-814 Y683A): as the sequence (P10477 482-814) above, with Y202A counted along it

Row | Molecule | Kd (CtCE2 [6]) | Km (purified protein [7]) | kcat (purified protein [7]) | also measured
1 | OC[C@H]1O[C@@H](O[C@H]2[C@H](O)[C@@H](O)[C@H](O[C@H]3[C@H](O)[C@@H](O)[C@H](O[C@H]4[C@H](O)[C@@H](O)[C@H](O[C@H]5[C@H](O)[C@@H](O)[C@H](O[C@H]6[C@H](O)[C@@H](O)C(O)O[C@@H]6CO)O[C@@H]5CO)O[C@@H]4CO)O[C@@H]3CO)O[C@@H]2CO)[C@H](O)[C@@H](O)[C@@H]1O (stereo partly shown) [cellohexaose] | 33 µM |  |  | Ki (CtCE2 [1]): 3.1 µM; Kd (CtCE2 [2]): 667 µM; Kd (CtCE2 [3]): 37 µM; Kd (CtCE2 [4]): 4.1 µM; Kd (CtCE2 [5]): > 1000 µM
2 | OC[C@H]1O[C@@H](O[C@H]2[C@H](O)[C@@H](O)[C@H](O[C@H]3[C@H](O)[C@@H](O)C(O)O[C@@H]3CO)O[C@@H]2CO)[C@H](O)[C@@H](O)[C@@H]1O (stereo partly shown) [cellotriose] | > 1000 µM |  |  | 
3 | OC[C@H]1O[C@@H](O[C@H]2[C@H](O)[C@@H](O)[C@H](O[C@H]3[C@H](O)[C@@H](O)[C@H](O[C@H]4[C@H](O)[C@@H](O)[C@H](O[C@H]5[C@H](O)[C@@H](O)C(O)O[C@@H]5CO)O[C@@H]4CO)O[C@@H]3CO)O[C@@H]2CO)[C@H](O)[C@@H](O)[C@@H]1O (stereo partly shown) [cellopentaose] | 71 µM |  |  | 
4 | OC[C@H]1O[C@@H](O[C@H]2[C@H](O)[C@@H](O)[C@H](O[C@H]3[C@H](O)[C@@H](O)[C@H](O[C@H]4[C@H](O)[C@@H](O)C(O)O[C@@H]4CO)O[C@@H]3CO)O[C@@H]2CO)[C@H](O)[C@@H](O)[C@@H]1O (stereo partly shown) [cellotetraose] | 333 µM |  |  | 
5 | B1 |  | 75 µM | 2,512 min-1 | 
6 | B2 |  | 186 µM | 2,976 min-1 | 
7 | B3 |  |  |  | Km (purified protein [8]): 339 µM; kcat (purified protein [8]): 7,717 min-1
8 | B4 |  |  |  | Km (purified protein [8]): 262 µM; kcat (purified protein [8]): 49,820 min-1
9 | B5 |  | 165 µM | 7,032 min-1 | 
